T1: Homo sapiens AXL-Mus musculus FN1 domain (p33-AXL-mFN1) (human-mouse chimera, UniProt P30530 26-894)
T1 construct: Expressed in HEK293F cells; also called hsAXL-mmFN1; TH1021-mFN1
T1 chain: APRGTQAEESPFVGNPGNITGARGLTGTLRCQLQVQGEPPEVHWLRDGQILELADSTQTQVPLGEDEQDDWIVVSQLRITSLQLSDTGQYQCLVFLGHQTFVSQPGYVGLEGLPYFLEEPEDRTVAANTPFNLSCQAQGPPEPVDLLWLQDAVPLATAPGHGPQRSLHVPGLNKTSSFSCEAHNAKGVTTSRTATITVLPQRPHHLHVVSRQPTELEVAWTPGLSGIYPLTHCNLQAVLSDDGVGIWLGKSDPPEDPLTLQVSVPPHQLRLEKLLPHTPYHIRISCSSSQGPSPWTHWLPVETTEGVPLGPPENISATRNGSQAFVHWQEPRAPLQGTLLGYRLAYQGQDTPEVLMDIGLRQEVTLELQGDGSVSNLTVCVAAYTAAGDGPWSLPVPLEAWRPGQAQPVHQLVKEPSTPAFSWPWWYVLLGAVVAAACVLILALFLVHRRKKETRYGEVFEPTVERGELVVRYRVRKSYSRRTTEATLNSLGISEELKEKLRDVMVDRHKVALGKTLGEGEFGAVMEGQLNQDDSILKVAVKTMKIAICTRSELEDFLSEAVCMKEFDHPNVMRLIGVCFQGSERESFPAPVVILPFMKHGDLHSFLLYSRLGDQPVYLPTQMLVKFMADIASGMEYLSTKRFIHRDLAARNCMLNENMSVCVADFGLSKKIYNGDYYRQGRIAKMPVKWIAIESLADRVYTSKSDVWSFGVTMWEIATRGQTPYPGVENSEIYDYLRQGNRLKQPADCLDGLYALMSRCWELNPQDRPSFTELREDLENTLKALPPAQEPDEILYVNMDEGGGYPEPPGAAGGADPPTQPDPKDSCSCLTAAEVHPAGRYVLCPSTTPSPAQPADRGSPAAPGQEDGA

T2: Homo sapiens AXL-Mus musculus FN2 domain (p33-AXL-mFN2) (human-mouse chimera, UniProt P30530 26-894)
T2 construct: Expressed in HEK293F cells; also called hsAXL-mmFN2; TH1021-mFN2
T2 chain: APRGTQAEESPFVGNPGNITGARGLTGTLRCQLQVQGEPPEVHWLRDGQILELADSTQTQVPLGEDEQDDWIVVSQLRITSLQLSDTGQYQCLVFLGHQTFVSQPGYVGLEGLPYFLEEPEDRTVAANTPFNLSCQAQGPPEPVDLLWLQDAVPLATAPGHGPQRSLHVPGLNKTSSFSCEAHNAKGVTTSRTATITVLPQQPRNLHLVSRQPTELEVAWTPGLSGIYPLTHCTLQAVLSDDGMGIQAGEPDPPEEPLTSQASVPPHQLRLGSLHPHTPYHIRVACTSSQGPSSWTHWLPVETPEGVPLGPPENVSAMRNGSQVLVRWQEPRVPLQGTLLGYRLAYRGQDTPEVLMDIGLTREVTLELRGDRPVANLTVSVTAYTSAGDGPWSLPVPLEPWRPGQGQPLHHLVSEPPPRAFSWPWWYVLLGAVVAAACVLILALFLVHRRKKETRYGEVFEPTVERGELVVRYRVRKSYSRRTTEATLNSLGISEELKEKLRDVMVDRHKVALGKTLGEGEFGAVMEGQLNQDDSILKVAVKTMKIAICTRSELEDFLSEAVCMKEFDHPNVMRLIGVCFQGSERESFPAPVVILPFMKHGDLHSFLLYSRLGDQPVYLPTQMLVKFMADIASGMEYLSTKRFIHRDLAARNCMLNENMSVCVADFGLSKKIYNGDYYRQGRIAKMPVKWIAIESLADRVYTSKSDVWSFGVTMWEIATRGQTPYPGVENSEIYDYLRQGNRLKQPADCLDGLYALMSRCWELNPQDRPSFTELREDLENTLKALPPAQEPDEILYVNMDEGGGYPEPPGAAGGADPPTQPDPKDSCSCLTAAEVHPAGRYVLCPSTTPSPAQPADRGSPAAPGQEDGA


Experiments:
human AXL (full length) [1] = biological target: T3, human AXL (full length) (human, UniProt P30530 26-894); test: flow cytometry, A431 cells, no Gas6
T3 construct: also called TH1021-AXL; TH1021-hAXL

human AXL (full length) [2] = biological target: T3, human AXL (full length); test: flow cytometry, HEK293T cells with full-length human AXL
AXLECDHis = biological target: T4, AXLECDHis (human, UniProt P30530 26-447); test: BLI (Octet), IgG on anti-human Fc sensor, AXLECDHis analyte
T4 construct: theoretical mass 46 kDa used; also called extracellular domain (ECD) of human AXL (aa 1-447) with a C-terminal His tag; soluble recombinant AXL extracellular domain

[3] = biological target: T1, Homo sapiens AXL-Mus musculus FN1 …; test: flow cytometry, 1 µg/mL antibody, transfected HEK293F cells
[4] = biological target: T2, Homo sapiens AXL-Mus musculus FN2 …; test: as above
human AXL (full length) [5] = biological target: T3, human AXL (full length); test: FMAT screening assay, HEK-293F cells transiently expressing human AXL
human AXL (full length) [6] = biological target: T3, human AXL (full length); test: flow cytometry, A431 cells pre-incubated with 10 µg/mL Gas6 (competitor)
human AXL (full length) [7] = biological target: T3, human AXL (full length); test: flow cytometry, HEK293T cells transiently transfected with human AXL

Row | Binder | EC50 (human AXL (full length) [1]) | EC50 (human AXL (full length) [2]) | Kd (AXLECDHis) | koff (AXLECDHis) | kon (AXLECDHis) | binding result [3] | binding result [4] | EC50 (human AXL (full length) [5]) | Maximal binding (Arbitrary units) (human AXL (full length) [5]) | EC50 (human AXL (full length) [6]) | maximal binding in presence of Gas6 (% of binding in absence of Gas6) (human AXL (full length) [6]) | EC50 (read off the curve) (human AXL (full length) [7])
1 | IgG1-AXL-148 (antibody, V domains shown) VH: EVQLLESGGGLVQPGGSLRLSCAASGFTFSSYAMTWVRQAPGKGLEWVSAISISGGSTFYADSVKGRFTISRDNSKNTLYLQMNSLRAEDTAVYYCRGYSGYVYDAFDFWGQGTMVTVSS VL: DIQMTQSPSSLSASVGDRVTITCRASQGISNWLAWYQQKPEKAPKSLIYAASSLQSGVPSRFSGSGSGTDFTLTISSLQPEDFATYYCQQYNSYPLTFGGGTKVEIK | 0.11 µg/mL | 0.094 µg/mL | 20 nM | 0.0044 s⁻¹ | 230000 M⁻¹ s⁻¹ | binds | binds | 0.0036 µg/mL | 3500 arbitrary units | 0.2 µg/mL | 93% | –
2 | IgG1-AXL-726 (antibody, V domains shown) VH: QVQLQQWGAGLLKPSETLSLTCAIDGGSFSGYYWSWIRQPPGKGLEWIGEISHSGRTNYNPSLKSRVTISIDTSKNQFSLKLSSVAAADTAVYYCARFITMIRGAIITHFDYWGQGALVTVSS VL: DIQMTQSPSSLSASVGDRVTITCRASQGISSWLAWYQQKPEKAPKSLIYAASSLQSGVPSRFSGSGSGTDFTLTISSLQPEDFATYYCQQYHSYPYTFGQGTKLEIK | 0.32 µg/mL | 0.288 µg/mL | 0.6 nM | 0.00013 s⁻¹ | 240000 M⁻¹ s⁻¹ | binds | – | 0.0471 µg/mL | 3150 arbitrary units | 0.55 µg/mL | 97% | ~0.09 µg/mL
3 | IgG1-AXL-183 (antibody, V domains shown) VH: QVQLQQWGAGLLKPSETLSLTCAVYGGSFSGYYWSWIRQPPGKGLEWIGEINQSGSTNYNPSLKSRVTISVDTSKNQFSLKLSSVTAADTSVYYCASGNWDHFFDYWGQGTLVTVSS VL: DIQMTQSPSSVSASVGDRVTITCRASQGISSWLAWYQHKPGKAPKLLIYATSSLQSGVTSRFSGSGSGTDFTLTISSLQPEDFATYYCQQAKSFPWTFGQGTKVEIK | 0.69 µg/mL | 0.526 µg/mL | 10.2 nM | 0.00042 s⁻¹ | 41000 M⁻¹ s⁻¹ | binds | binds | – | – | 1.19 µg/mL | 90% | ~0.1 µg/mL
4 | IgG1-AXL-733 (antibody, V domains shown) VH: QVQLVESGGGVVQPGRSLRLSCAASGFSFSTYAMHWVRQAPGKGLEWVAVISYDGDNKYSADSVKGRFTISRDNSKNTLYLQMNSLRAEDTAVYYCARGRKLGIDAFDIWGQGTMVTVSS VL: AIQLTQSPSSLSASVGDRVTITCRASQGISSALAWYQQKPGKAPKLLIYDASSLESGVPSRFSGSGSGTDFTLTISGLQPEDFATYYCQQFNSYPFTFGPGTKVDIK | 0.49 µg/mL | 0.176 µg/mL | 63 nM | 0.0097 s⁻¹ | 160000 M⁻¹ s⁻¹ | – | binds | – | – | 0.62 µg/mL | 93% | –

From patent US20180326084A1 (Genmab, published 2018)
